Measurements from paper PMC4819454 (ACS Central Science, 2016).
Read-outs that look alike come from different tables or passages of the source.

Experiments:
[1] = molecular target: porcine pancreatic α-amylase (porcine) (UniProt P00690); experiment: enzyme inhibition kinetics
[2] = molecular target: human pancreatic α-amylase (human) (UniProt P04746); experiment: enzyme inhibition kinetics
HPA = conditions: read-out: Ki against HPA, cited from earlier work
[3] = cited from earlier work
[4] = cited from earlier work; remark: listed apart in the source

Chain of UniProt P04746 (P04746 16-511): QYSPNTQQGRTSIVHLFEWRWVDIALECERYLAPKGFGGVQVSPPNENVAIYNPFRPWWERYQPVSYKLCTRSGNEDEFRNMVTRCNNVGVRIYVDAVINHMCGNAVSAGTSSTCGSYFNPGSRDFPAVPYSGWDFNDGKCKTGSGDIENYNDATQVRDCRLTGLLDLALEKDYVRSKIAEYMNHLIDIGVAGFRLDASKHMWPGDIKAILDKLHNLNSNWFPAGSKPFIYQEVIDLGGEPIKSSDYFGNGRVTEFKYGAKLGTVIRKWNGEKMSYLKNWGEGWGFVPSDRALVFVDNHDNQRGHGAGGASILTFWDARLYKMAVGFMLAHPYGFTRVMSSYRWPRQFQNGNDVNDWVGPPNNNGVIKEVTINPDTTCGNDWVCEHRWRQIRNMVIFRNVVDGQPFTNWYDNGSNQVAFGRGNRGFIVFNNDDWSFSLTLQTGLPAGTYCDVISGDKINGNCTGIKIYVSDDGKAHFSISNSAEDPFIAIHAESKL
Chain of UniProt P00690 (P00690 16-511): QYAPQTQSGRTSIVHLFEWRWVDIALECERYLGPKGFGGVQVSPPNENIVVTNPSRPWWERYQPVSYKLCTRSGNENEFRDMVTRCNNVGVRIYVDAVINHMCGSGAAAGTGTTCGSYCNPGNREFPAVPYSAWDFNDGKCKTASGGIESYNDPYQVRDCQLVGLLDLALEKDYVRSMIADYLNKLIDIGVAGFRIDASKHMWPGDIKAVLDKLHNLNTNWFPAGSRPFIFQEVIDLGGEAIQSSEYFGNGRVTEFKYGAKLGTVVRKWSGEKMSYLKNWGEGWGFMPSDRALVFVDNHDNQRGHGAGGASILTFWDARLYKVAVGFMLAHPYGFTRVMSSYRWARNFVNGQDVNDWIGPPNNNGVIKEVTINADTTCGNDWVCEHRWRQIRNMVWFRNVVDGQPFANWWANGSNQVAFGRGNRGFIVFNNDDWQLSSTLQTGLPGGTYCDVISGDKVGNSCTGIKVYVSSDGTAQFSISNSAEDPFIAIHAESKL

recombinant helianthamide (peptide)
Ki [1]: 0.1 nM | Ki [2]: 0.01 nM

Montbretin A [reference compound]
Ki (HPA): 8 nM

B1: tendamistat: 74-residue peptide with two disulfide bonds from Streptomyces tendae (protein, UniProt P01092 31-104, looked up)
Alpha-amylase inhibitor …: DTTVSEPAPSCVTLYQSWRYSQADNGCAQTVTVKVVYEDDTEGLCYAVAPGQITTVGDGYIGSHGHARYLARCL
Ki (HPA; estimated): 0.009 to 0.2 nM | immunogenicity ([3]; clinic): pronounced immunogenicity | blood plasma glucose levels ([3]; clinical trials): significant decrease in blood plasma glucose levels | vulnerability to degradation [4]: vulnerability to degradation
